Measured values: paper PMC9852224

How the values were obtained:
Noxa = Noxa (UniProt Q13794); assay: FLAG co-immunoprecipitation, immunoblot; conditions: reference: WT-FLAG-MCL-1; sites T163
BAK = BAK (UniProt Q16611); assay: FLAG co-immunoprecipitation, immunoblot; conditions: reference: WT-FLAG-MCL-1; sites T163
[1] = target: Mule (preparation of Supplemental Figure 3D, not told) (UniProt Q7Z6Z7)

Substance: Mcl-1 (from UniProt Q07820) T163A-FLAG-MCL-1
- binding against the reference (Noxa): lost
- binding against the reference (BAK): lost

Substance: Mule (preparation of Supplemental Figure 3D, not told) (from UniProt Q7Z6Z7 1-4374) (natural protein)
- stoichiometry N [1]: 2
